Test results from patent US20050124794A1 (published 2005).
Ends that are not written are not given here. * marks the point of attachment. Fmoc = O=C(OCC1c2ccccc2-c2ccccc21)*

B1: ATN-278.000.01 (Fmoc N-capped HHPHG) (peptide)
peptide: Fmoc-HHPHG
notes: The text says the N-terminus of the pentapeptide HHPHG was capped
B2: Histidine-Proline rich (H/P) domain of HPRG (ligand)
chain: SVNIIHRPPPHGHHPHGPPPHGHHPHGPPPHGHPPHGPPPRHPPHGPPPHGHPPHGPPPHGHPPHGPPPHGHPPHGPPPHGHPPHGHGFHDHGPCDPPSHK
notes: also called HPRG-H/P; HPRG-H/P domain
B3: ATN230 (peptide)
peptide: HHPHG
notes: Synthetic pentapeptide; also called HHPHG
B4: Antiangiogenic Ligand-Binding Polypeptide (AALBP), chymotryptic fragment of chicken gizzard Tpm cTPM1 (other)
chain: not shown
B5: Recombinant HKa domain 5 (HKa D5) (ligand)
chain: VSPPHTSMAPAQDEERDSGKEQGHTRRHDWGHEKQRKHNLGHGHKHERDQGHGHQRGHGLGHGHEQQHGLGHGHKFKLDDDLEHQGGHVLDHGHKHKHGHGHGKHKNKGKKNGKHNGWKTEHLAS
notes: also called HK-D5; D5 domain of HKa

Assays:
[1] = target: T1, Chicken gizzard tropomyosin (Tpm), purified (chicken); assay: displacement of 10 nM biotin-HKa from immobilized chicken gizzard Tpm, 10 µM ZnCl2
T1 construct: Bought from Sigma and coated on 96-well plates; also called purified Tpm; immobilized Tpm
T1 sequence (chain, as listed by the source limits assumed): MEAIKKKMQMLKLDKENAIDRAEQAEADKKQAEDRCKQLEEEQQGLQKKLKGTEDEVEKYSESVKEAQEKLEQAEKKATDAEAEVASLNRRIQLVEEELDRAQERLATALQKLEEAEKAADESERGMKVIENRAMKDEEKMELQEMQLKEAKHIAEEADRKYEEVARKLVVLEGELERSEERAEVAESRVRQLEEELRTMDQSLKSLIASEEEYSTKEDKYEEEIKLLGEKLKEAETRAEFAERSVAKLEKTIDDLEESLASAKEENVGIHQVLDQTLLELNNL
Protocol: The N-terminus of the pentapeptide HHPHG has been derivatized (capped) in an attempt to increase the pentapeptides' affinity to Tpm by increasing productive molecular contacts (or interactions). […] The IC₅₀ for the displacement of biotinylated-HKa for the capped peptides shown in the table was determined as follows: 10 nM biotin-HKa was added to a 96 well plate previously coated with 200 ng of chicken gizzard Tpm in the presence of 10 μM ZnCl₂. Increasing amounts of the peptides were added to the wells. The remaining biotin-HKa bound to Tpm was detected using avidin-HRP and a chromogenic substrate. A Kd was determined by non-linear regression analysis of the empirical data

[2] = target: T1, Chicken gizzard tropomyosin (Tpm), …; assay: as above; remark: listed apart in the source
Protocol: The IC₅₀ for the displacement of biotinylated-HKa for the peptides shown in Table 5 was determined as follows: 10 nM biotin-HKa is added to a 96 well plate previously coated with 200 ng of chicken gizzard Tpm in the presence of 10 μM ZnCl₂. Increasing amounts of the peptides are added to the wells. The remaining biotin-HKa bound to Tpm was detected using avidin-HRP and a chromogenic substrate. A Kd was determined by non-linear regression analysis of the empirical data. The effect on the Matrigel Plug assay was determined as follows: Matrigel (0.5 mL) containing 400 ng/ml of bFGF, 50 μg/ml heparin with or without the peptide (300 μM) or saline buffer are injected in the flanks of a mouse. After five days, the plugs are removed and the plugs scanned.

[3] = target: T1, Chicken gizzard tropomyosin (Tpm), …; assay: competition with 10 nM biotin-HKa on plate coated with 200 ng chicken gizzard Tpm, 10 µM ZnCl2
Protocol: 10 nM biotin-HKa was added to a 96 well plate previously coated with 200 ng of chicken gizzard Tpm in the presence of 10 μM ZnCl₂. Increasing amounts of HK-D5, HPRG-H/P domain or endostatin were added to the wells. Bound biotin-HKa was detected and Kd was calculated as for FIG. 10.
Binding to immobilized Tpm is carried out either by a competition assay with a known ligand, biotin-HKa, or by direct binding of the corresponding biotinylated protein. Plates are coated at room temperature with chicken gizzard Tpm (Sigma) in Tris buffer-saline (TBS) (200 ng/well). After incubation for 2 hours, wells are washed with TBS, then 1% BSA/TBS/Tween-20 is added to each well and incubate at 37° C. for two hours. HKa (Enzyme Laboratories) that had been previously biotinylated with EZ-Link (Pierce) according to the manufacturers instructions, is added to the plate at a concentration of 10 nM together with ZnCl₂ (10 μM) and the appropriate concentration of the protein, domain or peptide competitor. The plates are incubated at room temperature and then washed with TBS/Tween-20. Avidin-HRP is added, incubated for 20 minutes at room temperature, washed with TBS/Tween-20 and the chromogenic substrate is added. The reaction is stopped with sulfuric acid and the plate read at 490 nm.

[4] = target: T1, Chicken gizzard tropomyosin (Tpm), …; assay: binding to Tpm in vitro; assay not detailed
[5] = target: B5; assay: chymotryptic digest of chicken gizzard Tpm on HK-D5-Sepharose in TBS with 10 uM ZnCl2, elution with 2 M NaCl, SDS-PAGE
Protocol: Chicken gizzard Tpm (0.4 mg/ml) was incubated with 5 μg/ml chymotrypsin in TBS pH 7.5 at 37° C. and aliquots were taken at the indicated times. SDS-PAGE sample buffer was added and the sample heated at 80° C. for 4 minutes and then loaded onto and run on a 10% NuPage gel (Invitrogen).
Chicken gizzard Tpm was partially digested with Chymotrypsin as described for FIG. 19 for 100 minutes so that a 20 kDa fragment was enriched. HK-D5 had previously immobilized in an activated Sepharose (CNBr-activated Sepharose 4 B, Amersham Biosciences). The chymotryptic fragments were incubated with the HK-D5-Sepharose resin in TBS containing 10 μM ZnCl₂, washed extensively in the same buffer and eluted in 2 M NaCl. The samples were run in a 10% NuPage gel (Invitrogen).

[6] = target: T1, Chicken gizzard tropomyosin (Tpm), …; assay: competition ELISA against 10 nM biotin-HKa on immobilized chicken gizzard Tpm, 10 uM ZnCl2
[7] = target: T1, Chicken gizzard tropomyosin (Tpm), …; assay: inhibition of binding of 20 nM biotin-HKa to purified immobilized chicken gizzard Tpm; competition against 20 nM biotin-HKa
Protocol: FIGS. 7A-7C show specific binding of HKa to purified immobilized Tpm and its inhibition. […] Plates were incubated with increasing concentrations of biotin-HKa in the absence or presence of 10 μM Zn²⁺. […] The IC₅₀ for this inhibition was about 8.1 nM.

| Binder | IC50 [1] [µM] | IC50 [2] [µM] | further results |
| --- | --- | --- | --- |
| B1 | 55 | – | – |
| {3‑(1-adamantyl)propanoyl}-HHPHG [ATN-281.000.01 (3-(1-adamantyl)propanoyl N-capped HHPHG)] | 59 | – | – |
| TRRHDWGH [ATN232] | – | 140 | – |
| {4‑Chlorobenzyl}-HHPHG [ATN-276.000.01 (4-Chlorobenzyl N-capped HHPHG)] | 23 | – | – |
| B2 | – | – | fold higher affinity than endostatin [3]: ~1000 fold |
| HHPHG (not fully specified (N-terminus)) [ATN-275.000.01 ((1S)-(+)-camphorsulphonyl N-capped HHPHG)] | 30 | – | – |
| B3 | – | 121 | – |
| HPPHG (also called HPPHG) [ATN228] | – | 150 | – |
| AHPHG [AHPHG (Ala substituted mutant of HHPHG)] | – | – | binding result [4]: no binding |
| B4 | – | – | binding result [5]: binds |
| B5 | – | – | fold higher affinity than endostatin [3]: ~1000 fold; IC50 (read off the curve) [6]: ~0.002 µM; IC50 [7]: ~0.0081 µM |
| HKNKGKKN [ATN16] | – | 99.5 | – |
